Experimental data from patent publication US20250027068.
Positions count from the first letter of the chain named.

B1: PRT-581 (protein)
chain: MANQEIRYSKATPKTITSVWTKGVTPPENFIYNEDVLHAPYLANQGWYDITKTFNGKDDLLCGAATAGNMLHWWFDQNKEQIERYLKEHPEKQKINFNGEQMFDVKEAIDTKDSQTNSKLFEYFKDKAFPYLSTKHLGVFPDHVIDMFINGYRLSLTNHGPTPVKEQTKDPRGGIFDAVFTRGDQSKLLTSRHDFKEKTLNEISDLIKQELTEGKALGLSHTYANVRINHVINLWGADFDAEGNLEAIYVTDSDSNASIGMKKYYVGVNSAGKVAISAKEIEGDNIGAQVLGLFTLSTGKDIWEQTNLEHHHHHH
B2: PRT-542 (protein)
chain: MANQEIRYSKNENPNVTIKWVHGIGEPTQAEKEKIEFWWYETTTTKFFNNRKVDHLGDGNQCWAKTDSNMLHWWFVQNEENINQYIEKKNITGKINFNGEQMFDVKEGIDDNQEPEKSYIANTFRTKKAHNLSTKHKGDYIINGLSWYLYGLNNFKNAHGPTPVKKKPKFYGPALFKDVFNRGDGNTPIIVETDFKEYTKKEFEDTLSAALDSKKAVGINIYGSNVDYQHAITLWGAAFDEEENIIAIYVVDNNFKFENRIFPYGIWYQKEGRPYLFNYEINSFVKNRYVGEITTLDKGEAQWQETNLEHHHHHH
B3: PRT-588 (protein)
chain: MRNQTTTYSEVTPSHITSVWTKGVTPPEQFIQGEDVFHAPYIANQGWYDITKTFNGKDDLLCGAATAGNMLHWWFDQNKEQIENYLKKHPEKQKIMFNNEEMFDLREAINTKDSQTDSALFSYFKDKAFPNLSARRLGVMPDHVLDMFINGYYLNVGNTDKTDVNRGTKDLRGGIFDAVFTRGDQSKLLTARHDLKNKTLKEISDLIKQELTEGKALALSHTYANVRINHVINLWGADFDAEGNLEAIYVTDSDSNASIGMKKYYVGVNSAGKVAISAKKIEGDNIGAQVLGLFTLSTGQDIWQQTNLEHHHHHH
B4: PRT-248 (protein)
chain: MVTSVWTKGVTPPTNFTYGEDVLHAPYVANQGWYDITKTFNGKDDLLCGAATAGNMLHWWFDQNKEQIENYLKKHPEKQKINFNGEQMFDVKEAIDTKDSQLDSKLFEYFKEKAFPNLSTKHLGVFPDHVIDMFINGYRLSLLNHGPTPVKRGSKDPRGGIFDAVFTRGDQSKLLTNRHDFKEKTLKEISDLIKQELTEGKALGISHTYANVRINHVINLWGADFDAEGNLEAIYVTDSDSNASIGMKKYFVGVNSSGKVAISAKEIEEDNIGAQVLGLFTLSTGQDIWNQTN
B5: PRT-256 (protein)
chain: B4 chain with T39L, K111L, R213G, Y235A
B6: PRT-264 (protein)
chain: B4 chain with T39L, D45N, M88L, E108D, N117Y, L143T, P157K, D170V, S241T, A243P
B7: PRT-272 (protein)
chain: MVTSVWTKGVTPPTDFIYGEDVLHAPYKAGQGWYDITKLFNGKDDLLCGAATAGNMLHWWFDQNKEQIENYLKKHPEKQKINFNGEQMFDVKEAIDTKDSQLDSKLFEYFLEKAFPYLSTKHLGVFPDHVIDMFINGYRLSLTNHGPTPVKRGSKDPRGGIFDAVFTRGDQSKLLTNRHDLKNKTLKEISDLIKQELTEGKALGISHTYANVRINHVINLWGADFDAEGNLEAIAVTDSDSNASIGMKKYFVGVNSSGKVAISAKEIEEDNIGAQVLGLFTLSTGQDIWNQTN
B8: PRT-527 (protein)
chain: MANQEIRYSEETPKTITSVWTKGVTPPTDFIKNEDVLHAPYIANQGWYDITKTFNGKDDLLCGAATAGNMLHWWFDQNKEEIENYLKKHPEKQKINFNGEQMFDVKEAIDTKDSQTDSALFEYFKDKAFPNLSTKHLGVMPDLVLDMFINGYYLSLGKHGPTPVKRGTKDPRGGIFDAVFTRGDQSKLLTSRHDFKEKTLNEISDLIKQELTEGKALALSHTYANVRINHVINLWGADFNSEGNLEAIYVTDSDSNASIGMKKYYVGVNSAGKVAISAKEIEGDNIGAQVLGLFTLSTGQDIWEQTNLEHHHHHH
B9: PRT-547 (protein)
chain: MANQEIRYSEETPKTITSVWTKGVTPPTDFIQNEDVLHAPYIANQGWYDITKTFNGKDDLLCGAATAGNMLHWWFDQNKEEIENYLKKHPEKQKINFNGEQMFDVKEAIDTKDSQTDSALFEYFKDKAFPYLSTKHLGVFPDHVIDMFINGYRLSLTNHGPTPVKRGTKDPRGGIFDAVFTRGDQSKLLTARHDFKEKTLNEISDLIKQELTEGKALGLSHTYANVRINHVINLWGADFNSEGNLEAIYVTDSDSNASIGMKKYYVGVNAAGKVAISAKEIEGDNIGAQVLGLFTLSTGQDIWEQTNLEHHHHHH
B10: PRT-584 (protein)
chain: B1 chain with K10E, A11E, E28T, L42I, E88K, E166R, D240N, K300Q
B11: PRT-600 (protein)
chain: B9 chain with K14S, E81Q, A191S, S241A, A270S, I302S, E304N
B12: PRT-590 (protein)
chain: B9 chain with K14S, I16V, E81Q, A191S, S241A, A270S, E304N
B13: PRT-578 (protein)
chain: B1 chain with T15V, N29D, I31T, L37F, A43P, T168N, N201K, T212K
B14: PRT-543 (protein)
chain: B2 chain with A30S, H55P, V217I, Q269E
B15: PRT-404 (protein)
chain: MVTSVWTKGVTPPADFTQGEDVFHAPYVANQGWYDITKTFNGKDDLLCGAATAGNMLHWWFDQNKEYIEAYLKKHPEKQKIMFGDQELLDVRKAINTKGSQKNSELFNYFRDKAFPNLSARRLGVMPDLVLDMFINGYYLNVTKTQTTDVNRTYQEKDKRGGIFDAVFTRGDQSKLLTSRHDFKEKGLKEISDLIKQELTEGKALGLSHTYANVRIGHVINLWGADFDSDGNLKAIYVTDSDSNASIGMKKYFVGVNSAGKVAISAKEIKEDNIGAQVLGLFTLSTGQDIWNQTN
B16: PRT-412 (protein)
chain: B15 chain with G217N, S258A
B17: PRT-420 (protein)
chain: MTITSVWTKGVTPPTPEDFRYNNEDVLHAPYVANQGWYDITKTFDGKDNLLCGAATAGNMLHWWFDQNKEEIERYLKKHPEKQKIIFNNQEWFDVKAAIDTKDSQTNSKLFNYFRDKAFPNLSARQLGVMPDLVLDMFINGYYLNLGKTQSTDVNRPYQDKDKRGGIFDAVFTRGDQTTLLTARHDLKNKGLNEISDLIKQELTEGKALALSHTYANVRINHVINLWGADFDAEGNLIAIYVTDSDANASIGMKKYFVGVNANGKVAISAKKIEGDNIGAQVLGLFTLSTGQDIWQKLS
B18: PRT-428 (protein)
chain: B17 chain with W92L, A247T

Molecular target: pooled human IgG (human IgG1, 2, 3 and 4)

Point of comparison: B2, Enzyme Activity Endpoint Assay: Fab′2 0 ng/µL. Against it:
- B1 — higher, 660 ng/µL
- B3 — higher, 658 ng/µL
- B4 — higher, 654 ng/µL
- B5 — higher, 610 ng/µL
- B6 — higher, 606 ng/µL
- B7 — higher, 721 ng/µL
- B8 — the same, 0 ng/µL
- B9 — higher, 527 ng/µL
- B10 — higher, 552 ng/µL
- B11 — higher, 992 ng/µL
- B12 — higher, 954 ng/µL
- B13 — higher, 698 ng/µL
- B14 — the same, 0 ng/µL

Point of comparison: B12, Enzyme Activity Endpoint Assay: Fc 217 ng/µL. Against it:
- B1 — higher, 365 ng/µL
- B2 — lower, 0 ng/µL
- B3 — higher, 361 ng/µL
- B4 — higher, 370 ng/µL
- B5 — higher, 376 ng/µL
- B6 — higher, 353 ng/µL
- B7 — higher, 389 ng/µL
- B8 — lower, 142 ng/µL
- B9 — higher, 359 ng/µL
- B10 — higher, 369 ng/µL
- B11 — higher, 441 ng/µL
- B13 — higher, 394 ng/µL
- B14 — lower, 0 ng/µL

Point of comparison: B13, Enzyme Activity Endpoint Assay: IgG 0 ng/µL. Against it:
- B1 — the same, 0 ng/µL
- B2 — higher, 1470 ng/µL
- B3 — the same, 0 ng/µL
- B4 — the same, 0 ng/µL
- B5 — higher, 55 ng/µL
- B6 — higher, 97 ng/µL
- B7 — the same, 0 ng/µL
- B8 — higher, 707 ng/µL
- B9 — the same, 0 ng/µL
- B10 — higher, 51 ng/µL
- B11 — the same, 0 ng/µL
- B12 — the same, 0 ng/µL
- B14 — higher, 1470 ng/µL

Point of comparison: B7, Enzyme Activity Endpoint Assay: scIgG 0 ng/µL. Against it:
- B1 — the same, 0 ng/µL
- B2 — the same, 0 ng/µL
- B3 — the same, 0 ng/µL
- B4 — the same, 0 ng/µL
- B5 — the same, 0 ng/µL
- B6 — the same, 0 ng/µL
- B8 — higher, 396 ng/µL
- B9 — higher, 256 ng/µL
- B10 — higher, 285 ng/µL
- B11 — the same, 0 ng/µL
- B12 — the same, 0 ng/µL
- B13 — the same, 0 ng/µL
- B14 — the same, 0 ng/µL

Point of comparison: B16, Enzyme Activity Endpoint Assay (purified): Fab′2 518 ng/µL. Against it:
- B15 — lower, 0 ng/µL
- B17 — lower, 515 ng/µL
- B18 — lower, 505 ng/µL

Point of comparison: B15, Enzyme Activity Endpoint Assay (purified): Fc 0 ng/µL. Against it:
- B16 — higher, 103 ng/µL
- B17 — higher, 300 ng/µL
- B18 — higher, 336 ng/µL

Point of comparison: B16, Enzyme Activity Endpoint Assay (purified): IgG 0 ng/µL. Against it:
- B15 — higher, 1580 ng/µL
- B17 — higher, 125 ng/µL
- B18 — higher, 90 ng/µL

Point of comparison: B16, Enzyme Activity Endpoint Assay (purified): scIgG 170 ng/µL. Against it:
- B15 — lower, 0 ng/µL
- B17 — lower, 0 ng/µL
- B18 — lower, 119 ng/µL
